The RNAGym collection of RNA variant scans (doi:10.1073/pnas.2313332121)
Fewer inactive variants are shown than the library holds.

B1: TPR 5TU (parent)
chain: GGAUCUUCUCGAUCUAACAAAAAAGACAAAUCUGCCACAAAGCUUGAGAGCAUCUUCGGAUGCAGAGGCGGCAGCCUUCGGUGGCGCGAUAGCGCCAACGUUCUCAACUAUGACACGCAAAACGCGUGCUCCGUUGAAUGGAGUUUAUCAUG

Variants of: B1
Assay: polymerase ribozyme fitness, log enrichment relative to wild type (log ratio); higher = more active; in vitro selection for triplet polymerase activity
How it was run: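 Mutant libraries of each subunit of a heterodimeric triplet polymerase ribozyme were built by PCR and transcribed. Each library went through one round of in vitro selection in triplicate: annealing with biotinylated primer, partner subunit and triplets, frozen incubation at −7 °C, gel excision of extended constructs, streptavidin-bead capture and RT-PCR. Input and output libraries were Illumina-sequenced; only genotypes with ≥10 input reads and ≥1 read per output were kept. Fitness is log2(genotype enrichment/wild-type enrichment), using inverse-variance-weighted replicate averages.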

| Variant | polymerase ribozyme fitness (log ratio) |
| --- | --- |
| A28U A52C | -3.54 |
| C27G U33C U55A A97C A121G | ≤ -4.2 |
| A28U G86A | -4.08 |
| A30U C93U | -3.92 |
| C27G C76U G83A C85G A107U A119U G141A | ≤ -4.2 |
| A29G C93U A107G U148G | ≤ -4.2 |
| A28C A39C | ≤ -4.2 |
| A28U G94A | ≤ -4.2 |
| C27U A30U U55A G65U U102C A110G U111G C131A U134A | ≤ -4.2 |
| A28U A41C C54A A60C C96A C105U A106U | ≤ -4.2 |
| C27G C85U A91U U109A C118A U127C | ≤ -4.2 |
| C27G U33A U55A C87A A98C U104G U148A | ≤ -4.2 |
| A28G G86U | -3.52 |
| C27G U31C G62C C63G C85U A142U | ≤ -4.2 |
| A28G A49G C54U C85A U144G | ≤ -4.2 |
| A28G U44A U45A C76G U111C G133U | ≤ -4.2 |
| A30G A47U U53A C76G C96U C118A | ≤ -4.2 |
| A30U G80A G81U C85U U104A C105G | ≤ -4.2 |
| A30G C75G U82C C99A | ≤ -4.2 |
| A30C C93U | ≤ -4.2 |
| A28U C93G | ≤ -4.2 |

| Variant | polymerase ribozyme fitness (log ratio) |
| --- | --- |
| A29U C57A U61A A121U | ≤ -4.2 |
| A30U G46A U55A G74A U145A | ≤ -4.2 |
| A29U G124U | ≤ -4.2 |
| A28G C57G G84A A98G C114U | ≤ -4.2 |
| A28U G80U | -4.11 |
| A28G G42U G88A C93U C118A | ≤ -4.2 |
| A30C U44A C51U U77C C131G | ≤ -4.2 |
| A30U A39U G62A G70A A89C C129A A142C | ≤ -4.2 |
| A29G G86U U102G U134G G140U C149A | ≤ -4.2 |
| A30U C38U G50C U56G G83U A137C | ≤ -4.2 |
| A29U A47C C54A G94A U102G A110G C132A | ≤ -4.2 |
| A30G A60C G67U G68U G84U G117A U139A | ≤ -4.2 |
| A30C C38G A49C U61A A66C G67C C93G A110U G124C G143A | ≤ -4.2 |
| A30G G71C U78A C95G A115C | ≤ -4.2 |
| A30G C32G C85G U90C C93G U111G A113U | ≤ -4.2 |
| A30G A64C A66U C99U U102A G117A U145G | ≤ -4.2 |
| A28U C35U C87G C103U A121G A122G | ≤ -4.2 |
| A29U C54U U56G C57U C93U C103U G133A | ≤ -4.2 |
| A29G C95A A119C G141C | ≤ -4.2 |
| C27G U55A A60G C125U | ≤ -4.2 |
| A28U C36A A47G G59A C85A C129U U145A | ≤ -4.2 |

| Variant | polymerase ribozyme fitness (log ratio) |
| --- | --- |
| A28U U44A U55A U77G A120U | ≤ -4.2 |
| A29C A30U A89C | ≤ -4.2 |
| A30U C32U G50U C51U U82C A106U A119C | ≤ -4.2 |
| A30G C57U | -2.81 |
| C27G C96U | -3.97 |
| C27U G50U C95U C114U C118G A138U | ≤ -4.2 |
| A29U G46C G83C C108U | ≤ -4.2 |
| A28U A41U C93U U144C | -4.14 |
| A29C A52G U61A A122U G141U | ≤ -4.2 |
| C27U U31C A52G U134C | -0.377 |
| A30U G68C G81C G94A A98C U104C | ≤ -4.2 |
| A28U C69A C75U U139G | ≤ -4.2 |
| C27U G128A | -4.04 |
| A28U C32G C87U C99G | ≤ -4.2 |
| A28U G48C C75U U90G G117A C129G | ≤ -4.2 |
| A29U G59A C79G G80U G84U G124U | ≤ -4.2 |
| A29G G68C C96U U102G U135G C149A | ≤ -4.2 |
| A30C A60C | ≤ -4.2 |
| C27U C96A C105G | -2.96 |
| A30G A49G U56A A66U C79U C85U G128A | ≤ -4.2 |
| A29U U90G C95U A115G G117U A120U | ≤ -4.2 |

| Variant | polymerase ribozyme fitness (log ratio) |
| --- | --- |
| A28U U31C A91G C108U G136U A142G | ≤ -4.2 |
| A30C G42U C54U C63G G68A C93U A121G G140A | ≤ -4.2 |
| A28G U61G C75A C93U U104G U135A | ≤ -4.2 |
| A29U A142C | -4.15 |
| A29U C32U G34C C72U C95A G140C | ≤ -4.2 |
| A29U A39G U55A G92A | ≤ -4.2 |
| C27U A47G U77A C85U U146C | ≤ -4.2 |
| C27U A37C U56G | -2.92 |
| A28U C99G | -3.72 |
| A28G U145C | ≤ -4.2 |
| A28C G67U U144C U151C | ≤ -4.2 |
| C27G U44G G58C G71C C93G G94A U101A U102A | ≤ -4.2 |
| A30G C38A U56A A107U A121C | ≤ -4.2 |
| A29U U61A G67A C96U | ≤ -4.2 |
| A28U U56A A97G | ≤ -4.2 |
| A29U G68A G81A | ≤ -4.2 |
| A29U A97G A121G G140C | ≤ -4.2 |
| A28C U31A A91G U104C | ≤ -4.2 |
| A29U C95A U134C G140C | ≤ -4.2 |
| A28U G70C A91G G133C | ≤ -4.2 |
